# Reference: patent US20230295345A1 (published 2023)
# Like-named read-outs stand apart in the source and are kept apart here.
# T1: cynomolgus monkey TMPRSS6 expressed on HEK293T cells (CynoTMPRSS6-(His)6)
# T1 chain: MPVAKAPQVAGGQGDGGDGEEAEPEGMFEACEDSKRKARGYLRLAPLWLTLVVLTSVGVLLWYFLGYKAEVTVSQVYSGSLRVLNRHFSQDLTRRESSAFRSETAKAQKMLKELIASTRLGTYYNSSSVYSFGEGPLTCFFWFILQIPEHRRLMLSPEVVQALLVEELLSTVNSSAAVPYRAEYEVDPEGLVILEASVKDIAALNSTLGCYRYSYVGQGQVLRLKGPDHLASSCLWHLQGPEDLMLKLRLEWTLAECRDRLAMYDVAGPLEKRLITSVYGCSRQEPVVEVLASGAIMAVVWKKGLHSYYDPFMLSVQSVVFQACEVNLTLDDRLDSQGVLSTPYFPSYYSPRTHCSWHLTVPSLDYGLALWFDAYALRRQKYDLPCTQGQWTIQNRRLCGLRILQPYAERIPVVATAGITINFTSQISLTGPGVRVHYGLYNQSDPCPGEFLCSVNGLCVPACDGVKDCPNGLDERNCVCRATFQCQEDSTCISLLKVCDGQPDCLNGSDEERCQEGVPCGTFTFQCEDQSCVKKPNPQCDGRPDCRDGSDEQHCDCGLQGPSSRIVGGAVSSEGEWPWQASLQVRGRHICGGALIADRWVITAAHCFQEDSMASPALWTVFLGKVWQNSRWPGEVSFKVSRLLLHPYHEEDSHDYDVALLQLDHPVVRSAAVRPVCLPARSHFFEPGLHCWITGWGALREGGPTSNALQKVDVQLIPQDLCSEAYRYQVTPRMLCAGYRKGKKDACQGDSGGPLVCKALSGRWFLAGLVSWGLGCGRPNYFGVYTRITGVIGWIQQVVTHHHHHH
# T2: mouse TMPRSS6 expressed on HEK293T cells (MoTMPRSS6-(His)6) (UniProt Q9DBI0 1-811)
# T2 chain: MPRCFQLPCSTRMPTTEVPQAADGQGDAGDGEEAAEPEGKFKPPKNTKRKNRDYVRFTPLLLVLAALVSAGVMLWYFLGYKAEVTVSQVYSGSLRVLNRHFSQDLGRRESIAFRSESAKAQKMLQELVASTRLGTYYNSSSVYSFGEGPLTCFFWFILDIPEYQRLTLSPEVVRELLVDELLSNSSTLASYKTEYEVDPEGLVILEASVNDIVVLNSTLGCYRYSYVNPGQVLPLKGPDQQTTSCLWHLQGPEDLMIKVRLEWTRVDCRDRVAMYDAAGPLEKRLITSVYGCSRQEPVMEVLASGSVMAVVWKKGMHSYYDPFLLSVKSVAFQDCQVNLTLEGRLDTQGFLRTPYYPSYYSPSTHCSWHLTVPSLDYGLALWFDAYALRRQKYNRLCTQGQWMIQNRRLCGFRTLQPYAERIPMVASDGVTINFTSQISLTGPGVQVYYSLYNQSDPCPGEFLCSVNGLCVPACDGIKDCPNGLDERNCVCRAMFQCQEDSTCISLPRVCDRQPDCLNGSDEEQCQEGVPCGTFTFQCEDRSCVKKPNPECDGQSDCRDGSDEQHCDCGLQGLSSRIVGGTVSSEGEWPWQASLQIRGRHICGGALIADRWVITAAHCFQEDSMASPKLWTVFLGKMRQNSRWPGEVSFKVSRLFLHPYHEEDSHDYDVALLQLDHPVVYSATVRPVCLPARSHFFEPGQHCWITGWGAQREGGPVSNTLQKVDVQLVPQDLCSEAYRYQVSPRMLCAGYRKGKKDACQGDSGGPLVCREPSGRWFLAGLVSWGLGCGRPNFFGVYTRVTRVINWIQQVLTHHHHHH
# T3: human TMPRSS6 (matriptase-2) expressed on HEK293T cells (HuTMPRSS6-(His)6) (UniProt Q8IU80 10-811)
# T3 chain: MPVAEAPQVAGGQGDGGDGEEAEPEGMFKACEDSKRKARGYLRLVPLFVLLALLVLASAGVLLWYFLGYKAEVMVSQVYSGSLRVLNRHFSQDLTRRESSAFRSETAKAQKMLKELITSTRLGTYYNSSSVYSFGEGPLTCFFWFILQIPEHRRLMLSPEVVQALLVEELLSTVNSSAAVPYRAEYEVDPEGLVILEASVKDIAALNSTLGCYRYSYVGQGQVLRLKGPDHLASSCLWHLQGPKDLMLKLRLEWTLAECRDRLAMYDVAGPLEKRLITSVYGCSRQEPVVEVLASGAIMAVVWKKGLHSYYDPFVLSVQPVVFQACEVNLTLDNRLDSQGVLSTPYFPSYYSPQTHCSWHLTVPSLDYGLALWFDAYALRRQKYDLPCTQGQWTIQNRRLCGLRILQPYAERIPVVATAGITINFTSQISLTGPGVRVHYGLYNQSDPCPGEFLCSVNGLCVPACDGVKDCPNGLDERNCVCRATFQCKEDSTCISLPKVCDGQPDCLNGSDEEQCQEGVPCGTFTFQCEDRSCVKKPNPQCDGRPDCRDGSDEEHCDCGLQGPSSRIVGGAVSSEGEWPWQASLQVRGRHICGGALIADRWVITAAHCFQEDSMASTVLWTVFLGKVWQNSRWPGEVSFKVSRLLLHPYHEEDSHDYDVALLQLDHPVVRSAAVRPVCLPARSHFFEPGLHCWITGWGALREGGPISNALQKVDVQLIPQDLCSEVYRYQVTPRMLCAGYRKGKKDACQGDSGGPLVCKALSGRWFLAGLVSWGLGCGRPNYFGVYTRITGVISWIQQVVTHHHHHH
# B1: hzMWTx-002Var anti-TMPRSS6 antibody (antibody, V domains shown)
# VH: EVQLVQSGAEVKKPGASVKVSCKASGFNIKDYYIHWVRQATGQGLEWMGRIDPEDAESEYAPKFQGRVTITADTSTDTAYMELSSLRSEDTAVYYCTRGDSMMVTYFDYWGQGTLVTVSS
# VL: DIQMTQSPSSLSASVGDRVTITCKASQDVSTAVAWYQQKPGKAPKLLIYWAFTRHTGVPSRFSGSGSGTDYALTISSLQPEDFATYYCQQHYRSPWTFGGGTKVEIKR
# B2: MWTx-001 anti-TMPRSS6 antibody (antibody, V domains shown)
# VH: QVQLQQPGAELAKPGASVKMSCKASGYTFTSYWITWVKQRPGQDLEWIGNIYPGSGSTYYNEKFKSKATLTVDTSSRTAYMQLSSLTSADSAVYYCAPYDSDYAMDYWGQGTSVTVSS
# VL: DIKMTQSPSSMYASLGERVTITCKASQDINNYLSWFQQKPGKSPKTLIYRANRLVDGVPSRVSGSGSGQDYSLTISSLEYEDVGIYFCLQYDEFPLTFGAGTKLELKR
# B3: MWTx-003 anti-TMPRSS6 antibody (antibody, V domains shown)
# VH: EVQLQQSGAELVKPGASVKLSCTASGFNIEDYYIHWVKERTEQGLEWIGRIDPEDGETTYAPQFQGKATIIPDTSSNTAYMQLSSLTSEDAAVYYCARSIYLDPMDYWGQGTSVTVSS
# VL: DIVMTQSHKFMSTSVGDRVSITCKASQDVTTAVAWYQQKPGQSPKILIYWATTRHTGVPDRFTGSISGTTYILTISSVQAEDLALYYCQQHYSTPYTFGGGTKLEIKR
# B4: hzMWTx-003Var anti-TMPRSS6 antibody (antibody, V domains shown)
# VH: QVQLVQSGAEVKKPGASVKVSCKASGFNIEDYYMHWVRQAPGQRLEWMGRIDPEDAETTYSPKFQGRVTIIPDTSANTAYMELSSLRSEDTAVYYCARSIYLDPMDYWGQGTLVTVSS
# VL: DIQMTQSPKSLSASVGDRVTITCRASQDVTTALAWYQQKPGQSPKLLIYWATTRHSGVPSRFSGSGSGTDFTLTISSLQPEDFATYYCQQHYSTPYTFGQGTKLEIKR
# B5: MWTx-002 anti-TMPRSS6 antibody (antibody, V domains shown)
# VH: EVQLQQSGAELVKPGASVKLSCTASGFNIKDYYIHWVKERTEQGLEWFGRIDPEDGESEYAPKFQGKATLTADTSSNTAYLQLSSLTSEDTAVYYCTRGDSMMVTYFDYWGQGTTLTVSS
# VL: DIVMTQSHKFMSTSVGDRVSITCKASQDVSTAVAWYQQKPGQSPKLLIYWAFTRHTGVPDRFTSTGSGTDYALTISSVQAEDLALYYCQQHYRSPWTFGGGTKLEIKR
# B6: hzMWTx-001Var anti-TMPRSS6 antibody (antibody, V domains shown)
# VH: EVQLVQSGAEVKKPGASVKVSCKASGYTFTSYWITWVRQAPGQRLEWIGNIYPGSGSTYYNEKFKSKATITRDTSSRTAYMELSSLRSEDTAVYYCAPYDADYAMDYWGQGTLVTVSS
# VL: DIQMTQSPSSLSASVGDRVTITCKASQDISNYLSWFQQKPGKAPKLLIYRANRLVEGVPSRFSGSGSGTDFTLTISSLQPEDFATYFCLQYDEFPLTFGGGTKVEIKR
# Assays:
# [1] = target: T1, cynomolgus monkey TMPRSS6 expressed on …; test: cell surface ELISA
# [2] = target: T1, cynomolgus monkey TMPRSS6 expressed on …; test: cell surface ELISA
# [3] = target: T2, mouse TMPRSS6 expressed on HEK293T …; test: cell surface ELISA
# [4] = target: T3, human TMPRSS6 (matriptase-2) expressed …; test: cell surface ELISA
# [5] = target: T3, human TMPRSS6 (matriptase-2) expressed …; test: FACS
# [6] = target: T2, mouse TMPRSS6 expressed on HEK293T …; test: cell surface ELISA
Binder,EC50 [1] [µg/mL],EC50 [2] [µg/mL],EC50 [3] [µg/mL],EC50 [4] [µg/mL],EC50 [5] [µg/mL],EC50 [6] [µg/mL]
B1,0.06,,,,,
B2,,0.1,0.25,0.2,1,
B3,,0.09,0.07,0.05,0.2,
B4,0.03,,,,,0.31
B5,,0.06,,0.04,0.2,
B6,0.003,,,,,0.03
